Measurements from patent publication US20230374087A1, “METHOD TO IMPROVE PROTEIN QUALITY CONTROL” (The Johns Hopkins University, priority 2020, published 2023).
Positions count from the first letter of the chain named. In names and notes the source's numbering stands.

T1: recombinant human CHIP peptide fragment containing residues 13-30 (Uniprot Q9UNE7), WT
T1 chain: LGAGGGSPEKSPSAQELK

T2: recombinant human CHIP peptide fragment containing residues 13-30, S20A
T2 chain: LGAGGGAPEKSPSAQELK

B1: human, active PKG1α purified from Sf9 cells (SRP0371, Sigma) (protein)
chain: SELEEDFAKILMLKEERIKELEKRLSEKEEEIQELKRKLHKCQSVLPVPSTHIGPRTTRAQGISAEPQTYRSFHDLRQAFRKFTKSERSKDLIKEAILDNDFMKNLELSQIQEIVDCMYPVEYGKDSCIIKEGDVGSLVYVMEDGKVEVTKEGVKLCTMGPGKVFGELAILYNCTRTATVKTLVNVKLWAIDRQCFQTIMMRTGLIKHTEYMEFLKSVPTFQSLPEEILSKLADVLEETHYENGEYIIRQGARGDTFFIISKGTVNVTREDSPSEDPVFLRTLGKGDWFGEKALQGEDVRTANVIAAEAVTCLVIDRDSFKHLIGGLDDVSNKAYEDAEAKAKYEAEAAFFANLKLSDFNIIDTLGVGGFGRVELVQLKSEESKTFAMKILKKRHIVDTRQQEHIRSEKQIMQGAHSDFIVRLYRTFKDSKYLYMLMEACLGGELWTILRDRGSFEDSTTRFYTACVVEAFAYLHSKGIIYRDLKPENLILDHRGYAKLVDFGFAKKIGFGKKTWTFCGTPEYVAPEIILNKGHDISADYWSLGILMYELLTGSPPFSGPDPMKTYNIILRGIDMIEFPKKIAKNAANLIKKLCRDNPSERLGNLKNGVKDIQKHKWFEGFNWEGLRKGTLTPPIIPSVASPTDTSNFDSFPEDNDEPPPDDNSGWDIDF
B2: CHIP-S20E: CHIP with serine 20 to glutamic acid phospho-mimetic substitution; recombinant protein, adenovirus-expressed, or knock-in mouse (protein)
chain: MKGKEEKEGGARLGAGGGEPEKSPSAQELKEQGNRLFVGRKYPEAAACYGRVITRNPLVAVYYTNRALCYLKMQQHEQALADCRRALELDGQSVKAHFFLGQCQLEMESYDEAIANLQRAYSLAKEQRLNFGDDIPSALRIAKKKRWNSIEERRIHQESELHSYLSRLIAAERERELEECQRNHEGDEDDSHVRAQQACIEAKHDKYMADMDELFSQVDEKRKKRDIPDYLCGKISFELMREPCITPSGITYDRKDIEEHLQRVGHFDPVTRSPLTQEQLIPNLAMKEVIDAFISENGWVEDY
modifications: left off: small tags and cut ends
notes: CHIP with serine 20 to glutamic acid phospho-mimetic substitution; recombinant protein, adenovirus-expressed, or knock-in mouse
B3: CHIP-WT: wild type carboxy terminus of Hsc70-interacting protein (CHIP), recombinant or adenovirus-expressed (protein)
chain: B2 chain with E19S
modifications: left off: small tags and cut ends
B4: CHIP-K31A: CHIP Lys 31 (K30 in humans) to Ala mutant that abolishes CHIP chaperone interactions (protein)
chain: B2 chain with E19S, K30A
modifications: left off: small tags and cut ends

Assays:
CHIP pS20 = experiment: Immunoblot for phospho-S20 CHIP in myocytes; format: cell-based, rat; settings: cardiomyocytes; cGMP or SIL; DT3 1 μM
Experimental: (§1) Tissue and cultured cardiomyocytes were lysed in 1× lysis buffer (Cell Signaling Technology), protein concentration was measured by bicinchoninic acid assay (Pierce), and extracts were subjected to SDS-PAGE using Novex Tris-Glycine Gels (4-20% gradient gel, Life Technologies) or Mini-protean TGX Gels (4-20% gradient gel, Bio-Rad), transferred to nitrocellulose membranes, and probed with various primary antibodies (CHIP (#2080S), Hsc70 (#8444S), p-CHIP S20 (Custom antibody, AbMart Inc., Shanghai, China; Project: 25011-1), Myc (#2276S), GAPDH (#2118S), and α-tubulin (#3878S) (Cell Signaling) and ubiquitin antibody (#SAB4503053) from Sigma), and fluorescence-labeled secondary antibodies (Licor, #926-32211, 926-32210, 926-68023, or 926-68022). Gels were imaged (Odyssey, Licor) and band intensity quantified (Odyssey Software 3.1).
Human CHIP peptide fragments containing amino acid residues 13-30 were incubated with cGMP/PKG and assayed by MS. […] Phosphorylation was also observed at neighboring S24 and S26, but only when a S20A CHIP mutant was used (FIG. 2D). This indicates the primary target for PKG on CHIP is at S20. A monoclonal phospho-antibody generated against the S20 site in CHIP was tested in vitro with recombinant PKG1α and CHIP, verifying a consistent phospho-S20-CHIP signal. Use of a CHIP-S20A mutant CHIP confirmed specificity (FIG. 2E).

TTR-V122I [1] = experiment: TTR abundance in hiPSC-CMs by western blot; format: cell-based, human; settings: TTR-V122I 5 μM; for TTR accumulation: Ad-Chip 10 MOI; for TTR accumulation with Lamp2A knockdown: siLamp2A 100 μM
Experimental: Human induced pluripotent stem cell derived cardiomyocytes (hiPSC-CMs) were infected with Ad-Chip WT, SE, or SA (10 MOI), in the presence or absence of protein kinase G (PKG) stimulation via cGMP ([…]) and exposed to media containing TTR-V122I (5 μM) or control for 14 days. Cells were lysed and TTR abundance was determined by western blotting for TTR with a total protein stain used to show equal loading.
Human induced pluripotent stem cell derived cardiomyocytes (hiPSC-CMs) were infected with Ad-Chip WT, SE, or SA (10 MOI), in the presence or absence of Lamp2A knockdown via siRNA (siLamp2A, 100 μM) and exposed to media containing TTR-V122I (5 μM) or control for 14 days. Cells were lysed and TTR abundance was determined by western blotting for TTR with a total protein stain used to show equal loading. Knocking down Lamp2A removes the method of protein degradation known as chaperone mediated autophagy (CMA).

[2] = target: T1, recombinant human CHIP peptide fragment …
[3] = target: T2, recombinant human CHIP peptide fragment …
Hsp70 (385-641) = target: T3, Hsp70 (385-641) (Homo sapiens, UniProt P0DMV8); experiment: Isothermal titration calorimetry of CHIP-Hsp70 binding; settings: ITC, 25° C.; for enthalpy (DH) / entropy (DS): triplicate, average ± SD
T3 construct: Hsp70 (385-641)
Experimental: Isothermal titration calorimetry was carried out using a TA Instruments NanoITC equilibrated at 25° C. and utilizing a stir speed of 600 rpm. Experiments were conducted in triplicate and data represents the average±one standard deviation. Titrations utilized 350 μM WT or S20E CHIP titrated into 50 µM Hsp70 (385-641) as a series of twenty four 2 μL injections.

Hsc70 = target: T4, Hsc70 (Rattus norvegicus, UniProt P63018); experiment: CHIP-Hsc70 co-immunoprecipitation from myocyte lysate; format: cell-based; settings: myocytes with or without SI, Hsc70 as bait
T4 construct: lysate from myocytes with or without exposure to SI were immunoprecipitated using Hsc70 as bait; endogenous in cells; host or cells: neonatal rat cardiomyocytes infected with adenovirus for Myc-tagged CHIP WT, S20E or S20A
Experimental: as §1
To test whether thermodynamic stabilization of CHIP-HSC70 due to S20 phosphorylation enhances protein binding, lysate from myocytes with or without exposure to SI were immunoprecipitated using Hsc70 as bait. […] Reduced CHIP-Hsc70 interaction was also observed in vivo following MI in hearts with PKG activation suppressed by mPDE5A/oe, whereas this was enhanced in WT hearts (FIG. 5C, FIG. 14B).

TTR-V122I [4] = experiment: TTR abundance in cardiac fibroblasts by western blot; format: cell-based; settings: neonatal rat cardiac fibroblasts, WT or SA 10 MOI, SE 0, 2.5, 5 or 10 MOI, TTR-V122I 5 μM, 14 days
Experimental: Fibroblasts were isolated from neonatal rat hearts and infected with Ad-Chip WT or SA (10 MOI) or SE (0, 2.5, 5, or 10 MOI) and exposed to media containing TTR-V122I (5 μM) for 14 days. Cells were lysed and TTR abundance was determined by western blotting for TTR with a total protein stain used to show equal loading.

myocardial infarction = experiment: Myocardial infarction by coronary ligation in CHIP S20E knock-in mice
From the text: Male and female mice (aged ˜3-4 months) were subjected to transmural myocardial infarction by mid left anterior descending artery ligation under open thoracotomy (25). Controls underwent open chest surgery and LAD isolation without ligation. Data obtained 1-week after infarction included 2D echocardiography (Vevo2100, 20-MHz; Visualsonics) in conscious mice to measure LV volume and ejection fraction, with analysis blinded to study group.
Myocardium was fixed in 4% paraformaldehyde, paraffin embedded, and sectioned into 4 μm slices, and stained with Masson's Trichrome. Fibrosis was quantified by color-based pixel count and intensity in parallel sections of the ischemic and remote areas (Aperio Image Scope). Transmural infarct size was estimated as the arc angle subtended by dense scar in a mid-MI cross section divided by 360° and expressed as percent. Immunostaining for ubiquitin (Sigma) and CHIP (Cell Signaling) was performed using AlexaFluor 488 conjugated secondary antibodies following the manufacturer's protocol. Counterstain was performed using DAPI (Invitrogen) and Troponin-T (Thermo Scientific) antibodies. Image acquisition was performed on a Leica confocal microscope (TCS SPE II) at 40× magnification.

[5] = target: T5, Hsp40-stimulated ATPase activity of Hsc70 (Homo sapiens, UniProt P11142); experiment: Chaperone refolding ATPase activity assay; format: biochemical; settings: CHIP 0.5-6 μM, Hsc70 0.5 μM, Hsp40 0.25 μM
T5 construct: His-tag (N); made in house; host or cells: E. coli BL21(DE3)
Experimental: Human HSP40 (DnaJB1), human CHIP and CHIP point mutants in pET30a with a C-terminal His-tag and hHsc70 (HSPA8) wild type with an N-terminal His-tag in pCOLA-Duet1 were expressed in BL21(DE3) and purified on Ni-NTA (Qiagen). Hsc70 and CHIP proteins were induced and expressed for 22 hours at 18° C. Hsp40 protein was induced and expressed for 5 hours at 25° C. Required stock solutions of proteins were prepared by diluting high concentrated stocks in protein storage buffer into protein storage buffer, 20 mM HEPES (pH7.4), 150 mM NaCl. Hsc70 and Hsp40 were used at a concentration of 0.5 μM and 0.25 μM, respectively, with a gradient of CHIP protein concentrations (0.5-6 μM). Hsp40-stimulated ATPase activity of Hsc70 was measured using fluorescent polarization with the […]® ADP2 FP Assay (BellBrook Labs, 3010-1K) on a Clariostar plate reader (BMG) in 384 well black, non-binding plates (Greiner, 784900). Optimized instrument settings were used: Excitation wavelength. 590 nm; Emission wavelength: 675 nm; Required value: 5%; Target mP: 20; Gain A: 1824; Gain B: 1854; Focal Height: 12.4 mm. Values of μM ADP formed in the reactions were interpolated from an ATP/ADP standard curve run in parallel.

[6] = 14 days, no Lamp2A knockdown (Example 8)

T3 sequence (P0DMV8 385-641): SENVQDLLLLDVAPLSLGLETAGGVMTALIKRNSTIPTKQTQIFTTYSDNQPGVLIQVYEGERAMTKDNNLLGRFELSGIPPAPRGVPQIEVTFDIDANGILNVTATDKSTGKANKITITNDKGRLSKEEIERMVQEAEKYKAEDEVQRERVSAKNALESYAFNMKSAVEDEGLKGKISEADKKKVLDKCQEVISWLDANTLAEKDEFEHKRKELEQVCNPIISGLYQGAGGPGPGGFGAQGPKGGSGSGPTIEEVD
T5 sequence (P11142 whole entry): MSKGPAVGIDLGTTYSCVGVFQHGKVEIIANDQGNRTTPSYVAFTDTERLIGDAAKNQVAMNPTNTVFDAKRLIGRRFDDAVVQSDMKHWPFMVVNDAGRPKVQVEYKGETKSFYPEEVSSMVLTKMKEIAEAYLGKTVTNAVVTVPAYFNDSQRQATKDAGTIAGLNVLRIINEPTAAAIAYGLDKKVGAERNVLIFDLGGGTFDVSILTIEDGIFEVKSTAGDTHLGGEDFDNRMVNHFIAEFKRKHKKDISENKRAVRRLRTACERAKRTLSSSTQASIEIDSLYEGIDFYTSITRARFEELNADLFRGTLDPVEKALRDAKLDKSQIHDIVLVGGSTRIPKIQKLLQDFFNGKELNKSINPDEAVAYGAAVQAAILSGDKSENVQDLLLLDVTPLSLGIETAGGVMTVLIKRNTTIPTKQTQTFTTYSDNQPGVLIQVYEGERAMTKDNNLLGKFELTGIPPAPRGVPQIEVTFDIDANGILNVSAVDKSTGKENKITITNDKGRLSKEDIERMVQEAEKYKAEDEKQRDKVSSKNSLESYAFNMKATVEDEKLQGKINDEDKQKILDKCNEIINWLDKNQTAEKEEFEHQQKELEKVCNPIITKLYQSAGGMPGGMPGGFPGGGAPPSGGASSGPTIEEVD

Molecule	enthalpy (DH) (Hsp70 (385-641)) [kcal/mol]	entropy (DS) (Hsp70 (385-641)) [kcal/mol]	co-precipitation of CHIP and Hsc70 (Hsc70)	TTR accumulation (TTR-V122I [1]; 14 days (Example 7))	TTR accumulation (TTR-V122I [1]; [6])	TTR accumulation with Lamp2A knockdown (TTR-V122I [1]; 14 days)	TTR accumulation (TTR-V122I [4])	inhibition of Hsp70 ATPase activity [5]	further results
Nc1nc2c(ncn2[C@@H]2O[C@@H]3COP(=O)(O)O[C@H]3[C@H]2O)c(=O)[nH]1 [cGMP, cyclic guanosine monophosphate, reference compound]	–	–	–	–	–	–	–	–	CHIP pS20 level (CHIP pS20): CHIP pS20 increased; TTR accumulation with PKG stimulation (TTR-V122I [1]; cGMP 100 mM, 14 days): reduce TTR accumulation in Chip WT cells but not in Chip SA cells
B1	–	–	–	–	–	–	–	–	serine phosphorylation detected by mass spectrometry after incubation with cGMP/PKG [2]: Phosphorylation was observed at S20 with wildtype (WT) CHIP; serine phosphorylation detected by mass spectrometry after incubation with cGMP/PKG [3]: Phosphorylation was also observed at neighboring S24 and S26, but only when a S20A CHIP mutant was used
B2	-7.67 ± 0.22	2.34e-06 ± 8.84e-07	confirmed	cleared	cleared	removed the protective effect	cleared by Chip SE expression in a dose-dependent manner	–	increase of Hsp70 affinity as compared to CHIP-WT (Hsp70 (385-641)): 59%; more negative enthalpy as compared to CHIP-WT (Hsp70 (385-641)): 1.34 kcal/mol; Kd (Hsp70 (385-641); read-out: increase of Hsp70 affinity as compared to CHIP-WT): ~500 nM; accumulation of ubiquitinated proteins after MI (myocardial infarction; knock-in mice vs littermate controls, peri-infarct zone): less accumulation of ubiquitinated proteins; mortality after MI (myocardial infarction; male homozygotes and heterozygotes vs littermate controls): lower mortality; infarction size after MI (myocardial infarction; male knock-in mice vs littermate controls): reduced infarction size; heart function after MI (myocardial infarction; male knock-in mice vs littermate controls, echocardiography): improved heart function
B3	-6.31 ± 0.789	6.09e-06 ± 1.98e-06	confirmed	TTR accumulated	TTR accumulated	exacerbated the accumulation of TTR	TTR accumulated	dose-dependently inhibited	–
B4	–	–	–	–	–	–	–	an effect that was lost	–
